Test results: the supplement of paper PMC12042874
± gives the uncertainty stated by the source.

Assay: amyloid nucleation score (Sup35N fusion, yeast selection) (log enrichment); library NNK2; higher = more nucleation; inactive = no reads after selection
In short: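 Nucleation score: DiMSum log enrichment of output over input reads, centred on the mode score of non-aggregating sequences. Only sequences with at least 100 input reads were kept. Reads came from Illumina sequencing of plasmid inserts before and after 7 days of growth at 30°C without adenine and uracil, in psi-negative yeast expressing Sup35N fused to peptides of 20 random codons after 24 hours of induction with 100 μM copper sulfate.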

| Substance | amyloid nucleation score |
| --- | --- |
| ANMTVVGWFCIRR | 6.146 ± 0.058 |
| REYASILMYRNCMCH | 0.007 ± 0.5 |
| SISLCGVGVRWESVTAGNVC | 0.51 ± 0.36 |
| VWQVGQQRY | 0.899 ± 0.17 |
| TDLASKAS | -0.194 ± 0.48 |
| FCSVTMHKKMN | -0.195 ± 0.38 |
| YIQLGWGLSKTWSHLTGELA | 2.34 ± 0.14 |
| LSMVDCGASDGLEQVFGLAG | 0.14 ± 0.33 |
| RGCSVSTDDSVIRLTIAWQY | 0.33 ± 0.4 |
| YMFMIRSGFV | -0.376 ± 0.37 |
| CQMYWYFWPGVTRFAR | 8.633 ± 0.03 |
| QTVQVRPVRYGSQSFRNFGW | -0.109 ± 0.49 |
| CWRRDNNRGCARRSGVAPAK | 0.495 ± 0.24 |
| FWPYRPCKLYVIYLR | inactive |
| NDVAKYACDKHSGNYGYSQG | 0.011 ± 1.1 |
| KWVRLNKFNLPPHYSPPQTM | 1.42 ± 0.24 |
| EAWADGSIMYSYTRPDGDKV | 0.421 ± 0.24 |
| RGFCN | -1 ± 1.1 |
| MISRSFPQSVFFLTDLWS | -0.667 ± 0.31 |
| RMGSYDVNRNSFFKCSGRVS | -0.864 ± 0.78 |
| LVFRLDFDYVRLCPNLANTL | 0.192 ± 1 |
| LKLTVPKDRRKKMKGRVALI | -0.064 ± 0.76 |
| TTGHQLNDCYLKGCFSEWIL | -0.073 ± 1 |
| TCYRSDRPIRRRVAFALTEG | 1.04 ± 0.41 |
| CCWVDLGLKRMYESLFDR | 4.14 ± 0.051 |

| Substance | amyloid nucleation score |
| --- | --- |
| RLSSILYYVNHFS | -0.045 ± 0.41 |
| LVANSSVHVNSSTSNNRLAV | -0.917 ± 0.56 |
| YVPDVLTMYYGHTFTFDCGR | inactive |
| SNALQDGRVQLGSFEHRIVR | 0.649 ± 0.5 |
| IFSRIDTQCGMMSISQQ | -0.364 ± 0.24 |
| ASLALYRITRVGICYIRRLR | -0.839 ± 0.78 |
| HGAVGCAS | -0.002 ± 1 |
| ITYYHCVSHARNTKNQLTDF | inactive |
| SFSCFVCCDQHKSRGSVWHY | 8.683 ± 0.076 |
| RVERLWVLHSKATQRRM | 0.063 ± 0.79 |
| GNLSVTAILWLMRYECLNLS | -0.431 ± 0.64 |
| TRNYLFTTSNWYVSSKMSNS | -0.632 ± 0.56 |
| LFSYQYCVVRMVLFIRL | -0.588 ± 0.53 |
| FIVYKVPFRV | -0.934 ± 0.78 |
| SETNMVHPYAIYLKVRYANN | 0.566 ± 0.24 |
| MQMLIYGWSMCFILGAQV | 0.479 ± 0.74 |
| SYFNVNWARFQVGYSLIVCL | 6.131 ± 0.04 |
| RASVYCFLEHG | 3.42 ± 0.049 |
| YIVRNLVLLI | 5.577 ± 0.036 |
| VRSLKTHRFPFLCERSKFMG | -0.987 ± 0.38 |
| IVSLCFNNWGSYRVNGQYLY | 6.564 ± 0.033 |
| GYRSIFLLFFPADHPLHTIY | -0.064 ± 1.1 |
| PPVVVSTSIWSRLCSYV | 0.151 ± 0.35 |
| FRLHLKEFDGVPRWCQYTF | inactive |
| LNRVQLNLRGQRITLSHYQI | -0.536 ± 1.1 |

| Substance | amyloid nucleation score |
| --- | --- |
| SMLDILS | -1.79 ± 0.62 |
| MYRIDD | 6.83 ± 0.088 |
| TGKYICRW | -0.843 ± 0.38 |
| ALPITQNCC | -1.07 ± 0.44 |
| ITSSEVGHWYRVTEKCHIRM | 1.2 ± 0.3 |
| LYYFGTGAICMLLNWICPGC | inactive |
| YCSQAYHAGRRSALEQDSCM | 0.734 ± 0.81 |
| GGNFLVCYVFDDSCHWIMMY | 4.56 ± 0.086 |
| RVYSLNSRWYSLPG | 0.016 ± 0.76 |
| AGANLLSLCSFKHAECYFSN | 6.31 ± 0.071 |
| PISLRGLYCVKDLMDKPM | 0.113 ± 0.61 |
| YMLRIRTMSVPVFPVGFLGL | -0.275 ± 0.56 |
| STGILRS | inactive |
| LEVTIMTRFVLMLMTLCFPS | -0.066 ± 0.36 |
| LSVPRIFGSFVWVRQ | -0.633 ± 1.1 |
| KFMARDLRTYFIALQPRCKD | 6.614 ± 0.05 |
| MLFAVDLVYGPDPLVNELTW | 1.03 ± 0.4 |
| RKTLLLKTRACPSPLFWLDT | inactive |
| ITPVRTVRMLSRMFNMLSQL | 4.83 ± 0.056 |
| PHAHRNANLVWHQGKAPKGG | 1.12 ± 0.53 |
| FIKRSAGNREANYNVTKENA | 0.816 ± 0.74 |
| ECVRCC | -1.11 ± 0.76 |
| EWVNVASVYGDSKKRYGWNA | -0.239 ± 0.61 |
| IANVWLLQFRKAFEGGLDAG | 7.08 ± 0.079 |
| SIRRLTR | -0.172 ± 0.49 |

| Substance | amyloid nucleation score |
| --- | --- |
| KELRQSVVIM | 0.644 ± 0.35 |
| WRGGFWPCSVVLI | 0.354 ± 0.65 |
| KICYWLRRASVYMLVVLGRP | -0.343 ± 0.49 |
| GPEWSSLGSKVRLHWINSM | 0.626 ± 0.8 |
| SLTSGRLYEIIIRIYHASFM | -1.46 ± 0.34 |
| TWRIYLTQRAVTSKMYLRAS | 4.74 ± 0.07 |
| YWELQSHMGRFNSSCHLRWV | -1.7 ± 0.76 |
| WSFDIAVTAR | inactive |
| EWVAVGTDQR | 1.25 ± 0.29 |
| RQQMDS | 3.62 ± 0.073 |
| WEGLSGTSLVLSQCFAPFSS | 2.17 ± 0.12 |
| SYYQCCSG | 3.15 ± 0.14 |
| IGVWMGCYTSLHCSIKCLEI | 6.36 ± 0.086 |
| DLKRTFR | -0.487 ± 0.79 |
| QGFVPHRSIWHTSNLSDWFM | inactive |
| MDPSICSDSLRFGLYWISRR | 3.93 ± 0.12 |
| FSCMLNSNFH | inactive |
| TYNKYK | -1.08 ± 0.78 |
| WRGGGLQLVQCDYRTLDNTQ | -0.409 ± 0.37 |
| WFVGFSMAYWNERDAGRPGM | 1.8 ± 0.15 |
| RCVKNKLWTYMGGNISYTSS | 2.14 ± 0.1 |
| FYVLWQLVVYAMVMYWDTYS | inactive |
| RWFFEQDIIYLSRVRGDFRV | inactive |
| SHPDRTIDSGFDTMRDAIWT | 0.22 ± 0.63 |
| SVLRSNRIVDLSIL | inactive |

| Substance | amyloid nucleation score |
| --- | --- |
| LDPKIRWLWK | 0.204 ± 0.6 |
| NLKRVKRMIPYYTTQ | -0.343 ± 0.33 |
| DYNKLVAWALCLCFFRFRRN | 0.762 ± 0.81 |
| PMSYLVWVSDFYLLRGGS | 0.019 ± 1.1 |
| ISPMWREWTWSHNWCSFPTS | inactive |
| LLGPYKAHTQKYCWSSYV | -0.287 ± 0.56 |
| LKGYSQVMRSSIGLWCFRKD | -0.547 ± 0.49 |
| TTMCMGLLTNWWAGRCL | 2.76 ± 0.1 |
| ELLHFSSISTS | inactive |
| SCCISPVSVIMRPSY | 3.79 ± 0.1 |
| SMIYIGIFS | 5.281 ± 0.031 |
| MFFSFNVFDFGPL | 4.698 ± 0.036 |
| MYKIF | inactive |
| GEGGANVMCRVAGIIR | 1.17 ± 0.17 |
| SVWVCPPLFGQMCAGVTNNR | -0.014 ± 0.41 |
| MVLDIFAS | 1.19 ± 0.44 |
| CGDQSVFERYETRRNLGL | 0.21 ± 0.63 |
| FLISEDVFHSNSSVWEHISL | -0.173 ± 0.56 |
| YQARVTMCIPAWTMSECSQC | -1.01 ± 0.76 |
| YLSWHNFVYRLVYIYSGYFN | inactive |
| LIRVYDSDATTIDRLGVCRW | 0.726 ± 0.35 |
| IHFWIMIDHG | -0.771 ± 0.35 |
| SEFSNFKSLQPVYH | -0.047 ± 1.1 |
| FLRLGLAITLISV | inactive |
| IYHLPNR | 5.988 ± 0.035 |

| Substance | amyloid nucleation score |
| --- | --- |
| DPVRWRVKFFFYDSEVCGPL | 2.73 ± 0.17 |
| ISSKITRLSPGGLVS | inactive |
| DSPFLQNLMWNIFVGRIATM | -0.272 ± 0.31 |
| SENGRLLLGLFGKRWDVNDV | -0.097 ± 0.79 |
| GMLKTLSMMHTLIWYFLWDT | -0.62 ± 0.79 |
| SVTPWTMNNSQYILMAYRVK | 0.283 ± 0.34 |
| PYYCMSYLAPWCPDELRAS | inactive |
| TFKILLRCGNNLFGSKAFDM | 3.63 ± 0.05 |
| WGCHRLEATVLLCVRVCIDC | -0.263 ± 1.1 |
| VCFVICDSPSFYV | 7.901 ± 0.044 |
| QPILSNLLNHLYTNILSSTL | -0.936 ± 0.64 |
| LGLMLIDLIWLRRYIYSWVR | 0.338 ± 0.34 |
| TYQMWLDTE | -0.445 ± 0.39 |
| CSLLVTLWE | 0.554 ± 0.23 |
| YGLWIKS | -0.127 ± 1.1 |
| SGYVRCLSAYDFLVNGLPML | 0.519 ± 0.31 |
| LPVQAYAS | inactive |
| TNVGCRVLCTLRSVTPDVVR | 0.646 ± 0.62 |
| ISTFSRVHLSKVYLRDSTIV | -1.92 ± 1.1 |
| NFRGGFWPVNMNTRLIWSGV | -1.52 ± 0.62 |
| CPCNGTNSLRLAYGYTGNNS | inactive |
| WNTAYGRVLASL | 2.32 ± 0.092 |
| HWGLNTWPYSDFGVTLLRGH | -0.477 ± 0.76 |
| FPNDKLCNFFFDNNQSLARK | -1.31 ± 1 |
| SPKMF | -0.564 ± 0.46 |

| Substance | amyloid nucleation score |
| --- | --- |
| MKNFNVYSTYWLCMGEYGCL | 6.34 ± 0.078 |
| FSDNKLFA | 0.715 ± 0.81 |
| FYGAKMSIHSYC | inactive |
| GSGNT | 0.444 ± 0.56 |
| MHSFLFLVIAM | inactive |
| RVRGGEYRRSYTKWWEGCGS | 3.19 ± 0.091 |
| GGNCVVNSIFVDLAICYVRR | 9.818 ± 0.057 |
| PVLVGESHSIGL | 0.863 ± 0.24 |
| SVICELLQDRFTSLHGMYGY | 0.119 ± 0.31 |
| NFYMSKVVSFKNGCM | 3.3 ± 0.057 |
| LDSLCG | 0.546 ± 0.57 |
| PLMRGECGALLRLMFNTVS | inactive |
| LNCVFLSLSQTGGSCELDFV | 7.007 ± 0.043 |
| SSGGMVKHYPKIQLSSVWVF | 0.238 ± 0.64 |
| FLSDNVISAY | -0.543 ± 0.38 |
| RFSYGVEANVMSPINTFLQW | 0.77 ± 0.23 |
| NVHYLGLVCRCALVFGTNML | inactive |
| IRLARISWRSRHYSTHSGVS | -0.076 ± 0.31 |
| ERGSGASMFVDGGRYRSRPM | -0.159 ± 1 |
| SPTRFFQLFQADGNSNRGDV | -0.519 ± 1 |
| NFKWVVAVMG | 0.789 ± 0.2 |
| YNAVA | inactive |
